Assay [1] addresses gp41 of HIV HXB2 (from the HXB2 gp160 gene, on pseudotyped virus) (HIV-1 HXB2, UniProt P04578 33-856). The experiment in a line: cell-based or functional assay.
In assay [2] the target is gp41 of HIV JRFL (from the JRFL gp160 gene, on pseudotyped virus) (HIV-1 JRFL). Briefly: cell-based or functional assay.

B1: end-locked five-helix protein having SEQ ID NO.: 2 (designed binder)
chain: MCGGGSQLLSGIVQQQNNLLRAIEAQQHLLQLTVWGIKQLQASGGSGGSWMEWDREINNYTSLIHSLIEESQNQQEKNEQELLSGGCGGSQLLSGIVQQQNNLLRAIEAQQHLLQLTVWGIKQLQASGGCGGSWMEWDREINNYTSLIHSLIEESQNQQEKNEQELLSGGSGGSQLLSGIVQQQNNLLRAIEAQQHLLQLTVWGIKQLQASGGGC
modifications: disulfide bond between the cysteine of the N-terminal linker and the cysteine of inside linker 2; disulfide bond between the cysteine of the C-terminal linker and the cysteine of inside linker 3 (as in FIG. 3b)
Turning to B1, the “EC50 in the virus-cell fusion assay (HIV luciferase assay, HOS-CD4 cells)” value in assay [1] came to 15 nM. Moreover, the “EC50 in the virus-cell fusion assay (HIV luciferase assay, HOS-CD4-CCR5 cells)” value in assay [2] is 0.75 nM.

These data come from patent US20030125515A1 (published 2003).
